This is an account of results in patent US11787839B2, “Targeting α2δ-1-bound glutamate receptors for treating diseases and disorders” (Board of Regents, The University of Texas System, priority 2017, dated 2023).

Experiment [1] relates to Cacna2d1 KO mice. Description: Nerve injury-induced pain hypersensitivity in Cacna2d1 KO mice. It counts as in vivo, mouse. The method, then:
Conventional α2δ-1 KO mice (C57BL/6 genetic background) were generated as described previously (Muller et al., 2010). Two breeding pairs of α2δ-1^+/− mice were purchased from Medical Research Council (Harwell Didcot, Oxfordshire, UK), and α2δ-I^−/− mice and α2δ-1^+/+ (wild-type) littermates were obtained by breeding the heterozygous mice. The spared nerve injury (SNI) procedure […] was performed on both male and female mice (10-11 weeks of age). Under a surgical microscope, the left common peroneal and tibial nerves were ligated and sectioned, leaving the sural nerve intact. The sham procedure consisted of the same surgery without nerve ligation and sectioning.
Behavioral assessments of nociception: To detect tactile allodynia, von Frey filaments were applied to the animals' left hindpaws (ipsilateral to the nerve injury). The rats or mice were placed individually in suspended chambers on a mesh floor. […] Using the up-down method, the tactile stimulus that produced a 50% likelihood of a withdrawal response was calculated (Fuller-Bicer et al., 2009).
To quantify the mechanical nociceptive threshold in the rats and mice (Patel et al., 2013; Dolphin et al., 2012), the paw pressure tests were conducted on the hindpaw with an analgesiometer (Ugo Basile, Varese, Italy). […]

Experiment [2] concerns the target T1, α2δ-1 and NMDAR subunits in spinal cord synaptosomes (Rattus norvegicus, UniProt P35439+Q00959+Q00960).
T1 construct: from tissue; host or cells: rat lumbar spinal cord slices (lamina II neurons) and synaptosomes made from them
Description: Protein levels in spinal cord synaptosomes of treated slices (SNL, sham). To be noted: SNL rats; slices treated 30 min. In kind it is cell-based. The protocol:
PSD-95, a known postsynaptic protein, was used as an internal control.
Spinal cord synaptosome preparation: The spinal cord slices were pooled from 2 rats and were homogenized using glass-Teflon homogenizer in 10 volumes of ice-cold HEPES-buffered sucrose (0.32 M sucrose, 1 mM EGTA, and 4 mM HEPES at pH 7.4) containing the protease inhibitor cocktail (Sigma-Aldrich). The homogenate was centrifuged at 1,000×g for 10 min at 4° C. to remove the nuclei and large debris. […] The synaptosomal pellet was lysed via hypo-osmotic shock in 9 volumes of ice-cold HEPES-buffer with the protease inhibitor cocktail for 30 min. The lysate was centrifuged at 25,000×g for 20 min at 4° C. to obtain the synaptosomal membrane fraction, which was then dissolved in sodium dodecyl sulfate sample buffer at a final concentration of 0.25 μg/μl for immunoblotting. […] The α2δ-1Tat peptide and scrambled control peptide were synthesized by Bio Basic Inc. (Marham, Ontario, Canada) and validated by using liquid chromatography and mass spectrometry.

The target in experiment [3] is T2, NMDARs of spinal dorsal horn neurons (Rattus norvegicus, UniProt P35439+Q00959+Q00960).
T2 construct: from tissue; host or cells: rat lumbar spinal cord slices (lamina II neurons) and synaptosomes made from them
In words: Electrophysiological recordings in rat spinal cord slices (SNL, Cacna2d1 vector). To be noted: SNL rats; peptides 1 mM for 60 min. In kind it is cell-based. The protocol: Electrophysiological recordings in spinal cord slices: Anesthesia was induced in rats or mice with isoflurane and removed the lumbar spinal cords via laminectomy. […] The spinal cord slices were placed in a glass bottom chamber and continuously perfused with Krebs solution at 5.0 ml/min at 34° C. maintained by an inline solution heater and a temperature controller.
It becomes impossible to visualize neurons in other laminas in adult (>10-week-old) rodent spinal cords because of heavy laminar myelination. […] The tip of the puff pipette was placed 150 μm away from the recorded neuron.
In some experiments, the attached dorsal root was electrically stimulated with a stimulating electrode (0.5 ms, 0.6 mA and 0.1 Hz) to evoke monosynaptic excitatory postsynaptic currents (EPSCs). The α-amino-3-hydroxy-5-methyl-4-isoxazolepropionic acid receptor (AMPAR)-mediated EPSCs were recorded at a holding potential of −60 mV in the presence of 10 μM bicuculline and 1 μM strychnine, whereas NMDAR-mediated EPSCs were recorded at +40 mV in the presence of 10 μM 6-cyano-7-nitroquinoxaline-2,3-dione, 10 μM bicuculline, and 1 μM strychnine. […] All signals were recorded using an amplifier (MultiClamp700B; Axon Instruments Inc., Union City, Calif.), filtered at 1-2 kHz, digitized at 10 kHz, and stored for off-line analysis. Final spinal cord slice recordings were performed 3-4 weeks after the nerve injury or sham surgery. In all electrophysiological experiments, 3-5 animals were used for each recording protocol, and only 1 neuron was recorded in each spinal cord slice.

T1 sequence (Q00959 20-1464 limits assumed, other chains not shown): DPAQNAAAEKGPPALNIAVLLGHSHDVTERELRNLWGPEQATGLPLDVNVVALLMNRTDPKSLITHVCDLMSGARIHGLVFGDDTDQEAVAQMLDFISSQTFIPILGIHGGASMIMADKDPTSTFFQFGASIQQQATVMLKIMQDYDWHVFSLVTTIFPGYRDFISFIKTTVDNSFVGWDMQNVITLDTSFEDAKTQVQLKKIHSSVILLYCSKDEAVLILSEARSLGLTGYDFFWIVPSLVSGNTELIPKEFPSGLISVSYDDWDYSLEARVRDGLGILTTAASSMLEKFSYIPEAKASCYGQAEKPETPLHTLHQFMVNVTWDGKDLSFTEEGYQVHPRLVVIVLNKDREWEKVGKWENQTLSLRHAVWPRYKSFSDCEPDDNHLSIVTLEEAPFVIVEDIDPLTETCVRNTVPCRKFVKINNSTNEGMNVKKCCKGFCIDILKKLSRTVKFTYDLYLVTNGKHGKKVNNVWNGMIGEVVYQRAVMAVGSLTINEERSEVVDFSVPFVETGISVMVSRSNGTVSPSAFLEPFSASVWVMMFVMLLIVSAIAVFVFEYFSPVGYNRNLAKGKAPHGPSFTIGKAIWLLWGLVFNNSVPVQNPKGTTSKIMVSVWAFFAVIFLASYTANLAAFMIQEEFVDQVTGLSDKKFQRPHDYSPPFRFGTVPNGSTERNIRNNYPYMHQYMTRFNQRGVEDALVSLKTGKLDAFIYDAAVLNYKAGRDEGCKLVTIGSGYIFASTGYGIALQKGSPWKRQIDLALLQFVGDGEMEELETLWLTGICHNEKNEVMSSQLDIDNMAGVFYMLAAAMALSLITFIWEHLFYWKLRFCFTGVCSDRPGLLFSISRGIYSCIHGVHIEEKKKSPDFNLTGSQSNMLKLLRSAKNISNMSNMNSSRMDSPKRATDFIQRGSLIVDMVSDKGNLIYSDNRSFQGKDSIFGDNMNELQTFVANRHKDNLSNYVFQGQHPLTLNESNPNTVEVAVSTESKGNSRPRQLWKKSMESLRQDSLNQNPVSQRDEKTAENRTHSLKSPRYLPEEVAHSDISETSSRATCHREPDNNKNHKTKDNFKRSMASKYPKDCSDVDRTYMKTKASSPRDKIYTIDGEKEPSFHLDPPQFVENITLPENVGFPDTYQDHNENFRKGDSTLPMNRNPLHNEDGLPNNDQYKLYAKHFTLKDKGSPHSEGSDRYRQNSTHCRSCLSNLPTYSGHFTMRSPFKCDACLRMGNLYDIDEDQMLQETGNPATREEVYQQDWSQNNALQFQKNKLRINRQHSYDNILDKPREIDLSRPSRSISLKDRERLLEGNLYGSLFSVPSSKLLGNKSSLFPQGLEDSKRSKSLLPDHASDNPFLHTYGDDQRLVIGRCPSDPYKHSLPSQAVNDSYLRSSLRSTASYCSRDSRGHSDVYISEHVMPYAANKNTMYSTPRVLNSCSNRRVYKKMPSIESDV
T1 sequence (Q00960 27-1482, other chains not shown): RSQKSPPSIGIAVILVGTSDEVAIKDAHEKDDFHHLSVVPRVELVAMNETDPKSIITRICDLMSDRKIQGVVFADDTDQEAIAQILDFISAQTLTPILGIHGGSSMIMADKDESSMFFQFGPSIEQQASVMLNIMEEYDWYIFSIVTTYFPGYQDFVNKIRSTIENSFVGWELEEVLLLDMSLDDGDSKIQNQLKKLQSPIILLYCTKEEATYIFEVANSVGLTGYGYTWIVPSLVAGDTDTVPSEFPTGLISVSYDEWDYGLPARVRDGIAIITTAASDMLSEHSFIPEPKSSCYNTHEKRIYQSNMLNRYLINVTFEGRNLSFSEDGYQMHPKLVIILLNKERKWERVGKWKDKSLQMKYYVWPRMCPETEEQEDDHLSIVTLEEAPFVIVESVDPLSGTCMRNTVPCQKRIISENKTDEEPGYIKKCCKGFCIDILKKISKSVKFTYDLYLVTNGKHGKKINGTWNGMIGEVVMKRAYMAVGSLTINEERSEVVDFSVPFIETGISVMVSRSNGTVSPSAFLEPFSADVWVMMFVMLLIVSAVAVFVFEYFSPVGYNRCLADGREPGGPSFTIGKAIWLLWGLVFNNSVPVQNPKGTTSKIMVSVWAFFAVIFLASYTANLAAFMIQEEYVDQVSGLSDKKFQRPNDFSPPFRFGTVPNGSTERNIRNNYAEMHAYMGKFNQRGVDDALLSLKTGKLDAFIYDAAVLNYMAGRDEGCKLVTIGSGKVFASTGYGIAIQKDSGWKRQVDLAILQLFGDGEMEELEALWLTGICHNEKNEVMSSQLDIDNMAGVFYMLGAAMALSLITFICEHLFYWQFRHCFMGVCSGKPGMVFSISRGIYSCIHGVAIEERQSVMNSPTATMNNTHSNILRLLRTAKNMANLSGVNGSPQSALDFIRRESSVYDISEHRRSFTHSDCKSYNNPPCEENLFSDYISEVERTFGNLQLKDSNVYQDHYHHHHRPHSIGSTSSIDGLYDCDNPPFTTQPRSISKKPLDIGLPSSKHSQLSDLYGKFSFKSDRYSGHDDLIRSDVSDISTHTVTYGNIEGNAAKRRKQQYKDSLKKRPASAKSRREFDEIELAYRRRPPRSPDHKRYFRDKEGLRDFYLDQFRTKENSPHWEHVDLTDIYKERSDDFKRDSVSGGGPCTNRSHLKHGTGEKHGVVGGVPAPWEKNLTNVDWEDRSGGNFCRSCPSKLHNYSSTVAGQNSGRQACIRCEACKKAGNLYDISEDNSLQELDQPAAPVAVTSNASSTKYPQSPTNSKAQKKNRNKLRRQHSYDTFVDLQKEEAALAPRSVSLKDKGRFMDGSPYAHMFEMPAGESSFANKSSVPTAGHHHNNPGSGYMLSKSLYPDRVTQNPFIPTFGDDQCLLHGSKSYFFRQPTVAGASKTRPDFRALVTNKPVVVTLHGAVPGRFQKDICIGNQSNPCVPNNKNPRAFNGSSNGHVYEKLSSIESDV

In the case of “YGRKKRRQRRRVSGLNPSLWSIFGLQFILLWLVSGSRHYLW (a2d1 peptide) [α2δ-1Tat peptide, 30-amino-acid peptide mimicking the C-terminal domain of α2δ-1 fused to the cell-penetrating peptide Tat]”, the “nerve injury-induced pain hypersensitivity in Cacna2d1 KO mice” value in experiment [1] is on record as “had no effect”. In addition, the “increased protein levels of GluN1, GluN2A, GluN2B and α2δ-1 in spinal cord synaptosomes” value in experiment [2] is recorded as “largely normalized”. Also, in experiment [3], the “increased pre- and postsynaptic NMDAR activity of spinal dorsal horn neurons” value is “normalized”.
